From patent publication US20070280945A1 (Regeneron, published 2007)

T1: recombinant hIL-6R protein, monomeric form (human, UniProt P08887 20-358)
T1 construct: also called monomeric hIL-6R; Human IL6R
T1 sequence: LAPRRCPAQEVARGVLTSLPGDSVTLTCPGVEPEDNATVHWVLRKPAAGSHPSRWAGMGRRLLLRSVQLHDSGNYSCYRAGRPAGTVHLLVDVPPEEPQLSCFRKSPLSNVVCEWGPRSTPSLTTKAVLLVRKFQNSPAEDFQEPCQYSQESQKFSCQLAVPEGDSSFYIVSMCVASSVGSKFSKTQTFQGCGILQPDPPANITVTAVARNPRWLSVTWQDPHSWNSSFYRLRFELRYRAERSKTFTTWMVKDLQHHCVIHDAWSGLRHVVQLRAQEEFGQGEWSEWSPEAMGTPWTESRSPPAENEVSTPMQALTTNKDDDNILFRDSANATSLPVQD

T2: Recombinant monkey monomeric IL-6R protein (Macaca fascicularis, extracellular domain) (Macaca fascicularis, UniProt P08887 21-330 (human entry))
T2 construct: also called Monkey IL6R; monkey IL-6R
T2 chain: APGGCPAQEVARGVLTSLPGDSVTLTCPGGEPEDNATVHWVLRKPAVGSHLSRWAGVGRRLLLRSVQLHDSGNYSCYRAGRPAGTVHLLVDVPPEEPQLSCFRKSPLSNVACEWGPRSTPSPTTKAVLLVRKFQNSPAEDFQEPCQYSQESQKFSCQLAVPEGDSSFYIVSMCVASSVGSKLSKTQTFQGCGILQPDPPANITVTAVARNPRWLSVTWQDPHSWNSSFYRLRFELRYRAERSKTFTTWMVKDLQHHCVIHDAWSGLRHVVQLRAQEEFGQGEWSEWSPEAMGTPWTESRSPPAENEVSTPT

T3: hIL-6R-hFc (human, UniProt P08887 20-358)
T3 construct: also called dimeric hIL-6R; Dimer; not shown: human Fc (hFc)
T3 sequence: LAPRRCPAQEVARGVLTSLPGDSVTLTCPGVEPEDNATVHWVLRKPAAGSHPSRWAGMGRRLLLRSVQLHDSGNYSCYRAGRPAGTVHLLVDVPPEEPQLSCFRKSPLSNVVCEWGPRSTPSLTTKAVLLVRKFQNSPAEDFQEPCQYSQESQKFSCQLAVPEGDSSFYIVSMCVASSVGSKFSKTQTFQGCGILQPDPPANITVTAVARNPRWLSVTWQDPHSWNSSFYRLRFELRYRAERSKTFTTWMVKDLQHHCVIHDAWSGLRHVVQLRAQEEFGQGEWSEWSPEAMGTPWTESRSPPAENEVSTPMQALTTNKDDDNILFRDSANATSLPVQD

T4: hIL-6R on hIL-6-responsive human cells (XG-1 myeloma line, HepG2 hepatoma line) (human, UniProt P08887 20-468)
T4 sequence (looked up): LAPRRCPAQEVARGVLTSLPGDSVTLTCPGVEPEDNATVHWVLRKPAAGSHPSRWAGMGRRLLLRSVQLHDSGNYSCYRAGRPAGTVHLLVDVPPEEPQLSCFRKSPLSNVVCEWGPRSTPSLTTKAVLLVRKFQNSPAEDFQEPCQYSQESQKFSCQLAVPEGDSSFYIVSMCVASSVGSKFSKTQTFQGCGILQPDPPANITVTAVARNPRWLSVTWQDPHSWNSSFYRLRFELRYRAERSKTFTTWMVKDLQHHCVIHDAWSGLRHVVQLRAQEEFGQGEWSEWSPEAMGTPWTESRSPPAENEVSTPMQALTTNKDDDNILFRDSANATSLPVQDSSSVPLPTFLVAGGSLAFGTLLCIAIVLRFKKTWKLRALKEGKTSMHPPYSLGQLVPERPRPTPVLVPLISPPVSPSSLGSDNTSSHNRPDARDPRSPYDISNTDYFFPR

T5: hIL-6R recombinant protein (plate-coated, Example 5) (human, UniProt P08887 20-358, limits assumed)
T5 construct: also called antigen
T5 sequence: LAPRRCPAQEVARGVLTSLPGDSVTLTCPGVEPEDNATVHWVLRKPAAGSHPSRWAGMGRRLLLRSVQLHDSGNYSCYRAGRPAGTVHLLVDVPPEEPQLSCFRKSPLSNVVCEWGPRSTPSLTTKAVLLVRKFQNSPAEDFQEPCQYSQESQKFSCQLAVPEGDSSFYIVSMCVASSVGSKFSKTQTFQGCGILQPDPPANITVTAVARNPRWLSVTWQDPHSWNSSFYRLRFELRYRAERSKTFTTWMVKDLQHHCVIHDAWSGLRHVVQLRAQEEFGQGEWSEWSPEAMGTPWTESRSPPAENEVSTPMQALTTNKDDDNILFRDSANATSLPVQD


How the values were obtained:
[1] = molecular target: T1, recombinant hIL-6R protein, monomeric …; assay: SPR (BIAcore), antibody captured on goat anti-mouse Fc, monomeric IL-6R 1.25-40 nM injected
[2] = molecular target: T2, Recombinant monkey monomeric IL-6R …; assay: as above
[3] = molecular target: T1, recombinant hIL-6R protein, monomeric …; assay: SPR (BIAcore), captured mouse-IgG antibody, monomeric hIL-6R 1.56-12.5 nM
hIL-6R-hFc [4] = molecular target: T3, hIL-6R-hFc; assay: competition ELISA: antibody premixed with serial dilutions of hIL-6R-hFc, free antibody detected on hIL-6R-hFc-coated plate
hIL-6R-hFc [5] = molecular target: T3, hIL-6R-hFc; assay: blocking ELISA: 100 pM hIL-6R-hFc premixed with varied antibody, free hIL-6R-hFc captured on hIL-6-coated plate
hIL-6R-hFc [6] = molecular target: T3, hIL-6R-hFc; assay: SPR (BIAcore): hIL-6R-hFc captured, antibody injected, then 50 nM hIL-6; percent reduction in hIL-6 binding
[7] = molecular target: T4, hIL-6R on hIL-6-responsive human cells …; assay: cell-based or functional assay
[8] = molecular target: T5, hIL-6R recombinant protein …; assay: SPR (BIAcore) competition on hIL-6R; competitor: control antibody
hIL-6R-hFc [9] = molecular target: T3, hIL-6R-hFc; assay: SPR (BIAcore), antibody captured on anti-mouse IgG surface, dimeric hIL-6R
[10] = molecular target: T5, hIL-6R recombinant protein …; assay: competition ELISA on hIL-6R-coated plate presaturated with competitor control antibody; test antibody 50 ng/ml
[11] = molecular target: T1, recombinant hIL-6R protein, monomeric …; assay: SPR (BIAcore), antibody captured on anti-mouse IgG surface, monomeric hIL-6R
[12] = molecular target: T1, recombinant hIL-6R protein, monomeric …; assay: Kinexa solution-phase competition immunoassay, monomeric hIL-6R
[13] = molecular target: T4, hIL-6R on hIL-6-responsive human cells …; assay: cell-based or functional assay; remark: listed apart in the source
[14] = molecular target: T2, Recombinant monkey monomeric IL-6R …; assay: SPR (BIAcore); reference: binding to human IL-6R; end of range tied to this antibody by Table 4 (0.143 against 0.051 nM)
[15] = molecular target: T1, recombinant hIL-6R protein, monomeric …; assay: SPR (BIAcore), captured mouse-IgG antibody, monomeric hIL-6R 1.56-12.5 nM; mIgG2a isotype
[16] = molecular target: T1, recombinant hIL-6R protein, monomeric …; assay: SPR (BIAcore), antibody captured on goat anti-human Fc, monomeric hIL-6R 1.56-12.5 nM
[17] = molecular target: T1, recombinant hIL-6R protein, monomeric …; assay: SPR (BIAcore), antibody captured on goat anti-human Fc, monomeric hIL-6R 1.56-12.5 nM; modhIgG4 isotype

Row | Kd [1] | koff [1] | kon [1] | Kd [2] | koff [2] | kon [2] | koff [3] | kon [3] | IC50 (hIL-6R-hFc [4]) | IC50 (hIL-6R-hFc [5]) | hIL6/hIL6R Binding Inhibition (%) (hIL-6R-hFc [6]) | HepG2/Stat3 Luciferase activity IC50 [7] | XG-1 cell proliferation Inhibition IC50 [7] | % reduction of binding by control antibody [8] | Kd (hIL-6R-hFc [9]) | % reduction of binding by control antibody [10] | Kd [11] | Kd [12] | HepG2/STAT3 luciferase assay IC50 [13] | Binder | other results
1 | 0.162 nM | 8.41e-05 s⁻¹ | 518000 M⁻¹ s⁻¹ | 0.154 nM | 7.7e-05 s⁻¹ | 500000 M⁻¹ s⁻¹ | 7.52e-05 s⁻¹ | 772000 M⁻¹ s⁻¹ | 0.005 nM | 0.35 nM | 100% | 0.188 nM | 1.1 nM | 96% | 0.146 nM | 84% | 0.097 nM | 0.032 nM | 0.188 nM | VV6A9-5 (antibody, V domains shown, Human variable regions with mouse constant region; also called VV6A9-5 mIgG2a) VH: EVQLVESGGGLVQPGRSLRLSCAASGFTFDDYALHWVRQAPGKGLEWVSGVSWNGGRIGYADSVKGRFTISRDNAKNSLFLQMNSLRVEDTALYYCAKGRDAFDIWGQGTLVTVSS VL: DIQMTQSPSSVSASVGDRVTITCRASQGISSWLAWYQQKPGKAPKLLIYAASSLQSGVPSRFSGSGSGTDFTLTISSLQPEDFATYYCQHAYSFPYTFGQGTKLEIK | Kd [3]: 0.097 nM
2 | 0.051 nM | 4.38e-05 s⁻¹ | 851000 M⁻¹ s⁻¹ | 0.143 nM | 4.86e-05 s⁻¹ | 339000 M⁻¹ s⁻¹ | 5.27e-05 s⁻¹ | 786000 M⁻¹ s⁻¹ | 0.008 nM | 0.12 nM | 98% | 0.135 nM | 0.62 nM | 96% | 0.023 nM | 79% | 0.067 nM | 0.009 nM | 0.135 nM | VQ8F11-21 (antibody, V domains shown, Human variable regions with mouse constant region; also called VQ8F11-21 mIgG2a) VH: EVQLVESGGGLVQPGRSLRLSCAASRFTFDDYAMHWVRQAPGKGLEWVSGISWNSGRIGYADSVKGRFTISRDNAENSLFLQMNGLRAEDTALYYCAKGRDSFDIWGQGTMVTVSS VL: DIQMTQSPSSVSASVGDRVTITCRASQGISSWLAWYQQKPGKAPKLLIYGASSLESGVPSRFSGSGSGTDFTLTISSLQPEDFASYYCQQANSFPYTFGQGTKLEIK | fold difference of KD, monkey against human receptor [14]: 3 fold; Kd [15]: 0.067 nM
3 |  |  |  |  |  |  |  |  |  |  |  |  |  |  |  |  |  |  | 0.249 nM | VQ8F11-21 modhIgG4 (antibody, V domains shown, Modified human IgG4 constant region; also called VQ8F11-21 modified human IgG4) VH: EVQLVESGGGLVQPGRSLRLSCAASRFTFDDYAMHWVRQAPGKGLEWVSGISWNSGRIGYADSVKGRFTISRDNAENSLFLQMNGLRAEDTALYYCAKGRDSFDIWGQGTMVTVSS VL: DIQMTQSPSSVSASVGDRVTITCRASQGISSWLAWYQQKPGKAPKLLIYGASSLESGVPSRFSGSGSGTDFTLTISSLQPEDFASYYCQQANSFPYTFGQGTKLEIK | Kd [16]: 0.053 nM; kon [16]: 881000 M⁻¹ s⁻¹; koff [17]: 4.7e-05 s⁻¹
